The assay has as its target Myo1^IQ12-FRET protein (CyPet and YPet separated by both Myo1 IQ motifs) (S. pombe). Description: FRET or BRET; Cam1 or ^ACECam1 titrated into 0.5 µM Myo1^IQ12-FRET protein in solution, absence of calcium; % change in donor CyPet fluorescence (excitation 435 nm); 140 mM KCl, 2 mM MgCl2, 20 mM MOPS pH 7.0, 2 mM EGTA; two binding events fitted.

Bounds are passed on as bounds.

Turning to “Cam1 (unacetylated Schizosaccharomyces pombe calmodulin) (from UniProt P05933 1-150) (natural protein)”, the affinity of the first binding event was < 0.1 µM and the affinity of the second binding event is 1.47 µM.
The matching figures for “^ACECam1 (amino-terminally acetylated Schizosaccharomyces pombe calmodulin) (from UniProt P05933 1-150) (natural protein)”: < 0.1 µM and 0.68 µM.
